According to the Immune Epitope Database (IEDB):
One block for each sequence: values may come before it.

Columns and labels:
[1] = biological target: HLA-A*02:01; test: IEDB peptide-MHC binding, purified MHC/competitive/fluorescence; filed as Kd, often an IC50 or EC50 that approximates it; ≥ and ≤ were set here for values at or beyond the usual limits of such assays
[2] = biological target: HLA-A*69:01; test: as above
[3] = biological target: HLA-B*51:01; test: as above; conditions: source organism: Mus musculus
[4] = biological target: HLA-B*39:01; test: as above; conditions: source organism: Mus musculus
[5] = biological target: HLA-B*46:01; test: as above; conditions: source organism: Mus musculus
[6] = biological target: HLA-B*27:03; test: as above; conditions: source organism: Mus musculus
[7] = biological target: HLA-C*12:03; test: IEDB peptide-MHC binding, purified MHC/direct/fluorescence; filed as Kd, often an IC50 or EC50 that approximates it; ≥ and ≤ were set here for values at or beyond the usual limits of such assays
[8] = biological target: HLA-C*08:02; test: as above
[9] = biological target: HLA-A*03:01; test: IEDB peptide-MHC binding, purified MHC/competitive/fluorescence; filed as Kd, often an IC50 or EC50 that approximates it; ≥ and ≤ were set here for values at or beyond the usual limits of such assays; conditions: source organism: Vaccinia virus Copenhagen
[10] = biological target: HLA-A*11:01; test: as above; conditions: source organism: Vaccinia virus Copenhagen
[11] = biological target: HLA-B*57:01; test: as above; conditions: source organism: Vaccinia virus Copenhagen
[12] = biological target: HLA-B*15:01; test: as above; conditions: source organism: Vaccinia virus Copenhagen
[13] = biological target: HLA-B*15:17; test: as above; conditions: source organism: Vaccinia virus Copenhagen
[14] = biological target: HLA-B*08:01; test: IEDB peptide-MHC binding, purified MHC/direct/fluorescence; filed as Kd, often an IC50 or EC50 that approximates it; ≥ and ≤ were set here for values at or beyond the usual limits of such assays; conditions: source organism: Variola virus
[15] = biological target: HLA-B*48:01; test: as above
[16] = biological target: HLA-A*31:01; test: as above
[17] = biological target: HLA-A*01:01; test: as above
[18] = biological target: HLA-A*02:01; test: as above; conditions: source organism: Camelpox virus M-96
[19] = biological target: HLA-A*69:01; test: as above; conditions: source organism: Camelpox virus M-96
[20] = biological target: HLA-B*15:09; test: as above; conditions: source organism: Variola virus
[21] = biological target: HLA-B*27:05; test: as above; conditions: source organism: Camelpox virus M-96
[22] = biological target: HLA-B*58:01; test: as above
[23] = biological target: HLA-B*39:01; test: as above; conditions: source organism: Variola virus
[24] = biological target: HLA-B*40:01; test: as above
[25] = biological target: HLA-A*26:01; test: as above; conditions: source organism: Variola virus
[26] = biological target: HLA-A*03:01; test: as above; conditions: source organism: Cryptosporidium hominis
[27] = biological target: HLA-B*57:01; test: as above; conditions: source organism: Cryptosporidium hominis
[28] = biological target: HLA-B*08:03; test: as above; conditions: source organism: Cryptosporidium parvum Iowa II
[29] = biological target: HLA-B*44:02; test: as above; conditions: source organism: Cryptosporidium hominis
[30] = biological target: HLA-B*07:02; test: as above; conditions: source organism: Cryptosporidium hominis
[31] = biological target: HLA-B*18:01; test: as above; conditions: source organism: Cryptosporidium hominis
[32] = biological target: HLA-A*03:01; test: IEDB peptide-MHC binding, purified MHC/competitive/radioactivity; filed as Kd, often an IC50 or EC50 that approximates it; ≥ and ≤ were set here for values at or beyond the usual limits of such assays; conditions: source organism: Vaccinia virus WR
[33] = biological target: HLA-A*31:01; test: as above; conditions: source organism: Vaccinia virus WR
[34] = biological target: HLA-A*11:01; test: as above; conditions: source organism: Vaccinia virus WR
[35] = biological target: HLA-A*68:01; test: as above; conditions: source organism: Vaccinia virus WR
[36] = biological target: HLA-A*33:01; test: as above; conditions: source organism: Vaccinia virus WR
[37] = biological target: HLA-C*03:03; test: IEDB peptide-MHC binding, purified MHC/direct/fluorescence; filed as Kd, often an IC50 or EC50 that approximates it; ≥ and ≤ were set here for values at or beyond the usual limits of such assays; conditions: source organism: Rickettsia rickettsii str. 'Sheila Smith'
[38] = biological target: HLA-A*02:03; test: IEDB peptide-MHC binding, purified MHC/competitive/fluorescence; filed as Kd, often an IC50 or EC50 that approximates it; ≥ and ≤ were set here for values at or beyond the usual limits of such assays; conditions: source organism: Human immunodeficiency virus 1
[39] = biological target: HLA-A*02:19; test: as above; conditions: source organism: Human immunodeficiency virus 1
[40] = biological target: HLA-A*02:16; test: as above; conditions: source organism: Human immunodeficiency virus 1
[41] = biological target: HLA-A*02:06; test: as above; conditions: source organism: Human immunodeficiency virus 1
[42] = biological target: HLA-A*02:12; test: as above; conditions: source organism: Human immunodeficiency virus 1
[43] = source organism: Camelpox virus M-96
[44] = source organism: Cryptosporidium hominis
[45] = source organism: Rickettsia rickettsii str. 'Sheila Smith'
[46] = source organism: Human immunodeficiency virus 1

Kd ([1]; source organism: Mus musculus): ≥ 20 µM | Kd ([2]; source organism: Mus musculus): ≥ 20 µM | Kd [3]: ≥ 20 µM | Kd [4]: ≥ 20 µM | Kd [5]: 0.0114 µM | Kd [6]: ≥ 20 µM | Kd ([7]; source organism: Mus musculus): ≤ 0.001 µM | Kd ([8]; source organism: Mus musculus): ≥ 20 µM
Sequence: YTFCGTIEY

Sequence: MTRVTNNVY
Kd [9]: ≥ 20 µM | Kd [10]: ≥ 20 µM | Kd [11]: 0.0986 µM | Kd [12]: 0.125 µM | Kd [13]: ≤ 0.001 µM | Kd [14]: ≥ 20 µM | Kd [15, 43]: ≥ 20 µM | Kd [16, 43]: ≥ 20 µM | Kd [17, 43]: 2.59 µM | Kd [18]: ≥ 20 µM | Kd [19]: ≥ 20 µM | Kd [20]: ≥ 20 µM | Kd [21]: ≥ 20 µM | Kd ([22]; source organism: Variola virus): 0.635 µM | Kd [23]: ≥ 20 µM | Kd [24, 43]: ≥ 20 µM | Kd [25]: 0.237 µM

Sequence: FMKSRVYSI
Kd [26]: ≥ 20 µM | Kd [15, 44]: ≥ 20 µM | Kd [16, 44]: ≥ 20 µM | Kd [17, 44]: ≥ 20 µM | Kd [27]: ≥ 20 µM | Kd [28]: 0.029 µM | Kd [29]: ≥ 20 µM | Kd [22, 44]: ≥ 20 µM | Kd [30]: ≥ 20 µM | Kd [31]: ≥ 20 µM | Kd [24, 44]: ≥ 20 µM

Sequence: FTDISMSLY
Kd ([8]; source organism: Variola virus): 0.019 µM | Kd [17, 43]: ≤ 0.001 µM | Kd [32]: ≥ 32.2 µM | Kd [33]: 10.7 µM | Kd [34]: 2.53 µM | Kd [35]: 0.546 µM | Kd [36]: ≥ 77.7 µM

Sequence: FMPESSYLL
Kd [7, 45]: 0.707 µM | Kd [8, 45]: ≥ 20 µM | Kd [37]: 0.443 µM

Sequence: SLVKHHMYV
Kd [38]: 0.00188 µM | Kd [1, 46]: 0.00733 µM | Kd [2, 46]: 0.145 µM | Kd [39]: 0.0173 µM | Kd [40]: 0.000572 µM | Kd [41]: ≤ 0.0001 µM | Kd [42]: 0.00935 µM
